Article PMC7570257 (Biochemistry, 2015)

B1: chimera tPRMT8C (β15 of tPRMT8 replaced with that of Hmt1) (domain or fragment, human | yeast)
chain: MSKLLNPEEMTSRDYYFDSYAHFGIHEEMLKDEVRTLTYRNSMYHNKHVFKDKVVLDVGSGTGILSMFAAKAGAKKVFGIECSSISDYSEKIIKANHLDNIITIFKGKVEEVELPVEKVDIIISEWMGYCLFYESMLNTVIFARDKWLKPGGLMFPDRAALYVVAIEDRQYKDFKIHWWENVYGFDMTCIRDVAMKEPLVDIVDPKQVVTNACLIKEVDIYTVKTEELSFTSAFCLQIQRNDYVHALVTYFNIEFTKCHKKMGFSTAPDAPYTHWKQTVFYLEDYLTVRRGEEIYGTISMKPNAKNVRDLDFTVDLDFKIDGNSRSRKNEGSYLMH
B2: EGFP-tagged tPRMT8 (domain or fragment, human, UniProt Q9NR22 61-394, looked up)
chain: MSKLLNPEEMTSRDYYFDSYAHFGIHEEMLKDEVRTLTYRNSMYHNKHVFKDKVVLDVGSGTGILSMFAAKAGAKKVFGIECSSISDYSEKIIKANHLDNIITIFKGKVEEVELPVEKVDIIISEWMGYCLFYESMLNTVIFARDKWLKPGGLMFPDRAALYVVAIEDRQYKDFKIHWWENVYGFDMTCIRDVAMKEPLVDIVDPKQVVTNACLIKEVDIYTVKTEELSFTSAFCLQIQRNDYVHALVTYFNIEFTKCHKKMGFSTAPDAPYTHWKQTVFYLEDYLTVRRGEEIYGTISMKPNAKNVRDLDFTVDLDFKGQLCETSVSNDYKMR

What was measured:
[1] = molecular target: the molecule itself; experiment: AUC
[2] = molecular target: the molecule itself; experiment: native gel or EMSA

Row | Protein | stoichiometry N [1] | stoichiometry N [2]
1 | B1 | 4 | –
2 | B2 | – | 4
